T1: FcγRIIb extracellular domain with C-terminal His tag (human, UniProt P31994 43-217)
T1 construct: extracellular domain; Expressed in FreeStyle293 cells; used as analyte in Biacore; also called FcgRIIb; 2b; not shown: C-terminal His tag
T1 sequence (looked up): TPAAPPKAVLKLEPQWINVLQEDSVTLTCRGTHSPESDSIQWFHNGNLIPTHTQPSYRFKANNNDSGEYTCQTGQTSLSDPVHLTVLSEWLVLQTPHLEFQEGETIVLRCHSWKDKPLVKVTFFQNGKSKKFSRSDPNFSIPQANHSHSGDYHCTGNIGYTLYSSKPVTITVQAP

B1: GpH7-A5/GpH7-B3 variant S239_18N/GpL16-k0 (He Ab) (antibody, human IgG1, kappa)
heavy 1: not shown
heavy 2: not shown
light: DIVMTQSPLSLPVTPGEPASISCQASESLVHSNRNTYLHWYLQKPGQSPQLLIYKVSNRFSGVPDRFSGSGSGTDFTLKISRVEAEDVGVYYCSQNTHVPPTFGQGTKVEIERTVAAPSVFIFPPSDEQLKSGTASVVCLLNNFYPREAKVQWKVDNALQSGNSQESVTEQDSKDSTYSLSSTLTLSKADYEKHKVYACEVTHQGLSSPVTKSFNRGEC
notes: Substitution in one H chain only; position in EU numbering; also called S239N heterodimerized antibody
B2: GpH7-A5/GpH7-B3 variant S239_01G/GpL16-k0 (He Ab) (antibody, human IgG1, kappa)
heavy 1: not shown
heavy 2: not shown
light: B1 light
notes: Substitution in one H chain only; position in EU numbering; also called S239G heterodimerized antibody
B3: GpH7-A5/GpH7-B3 variant S267_07I/GpL16-k0 (He Ab) (antibody, human IgG1, kappa)
heavy 1: not shown
heavy 2: not shown
light: B1 light
notes: Substitution in one H chain only; position in EU numbering; also called S267I heterodimerized antibody
B4: GpH7-A5/GpH7-B3 variant L328_04F/GpL16-k0 (He Ab) (antibody, human IgG1, kappa)
heavy 1: not shown
heavy 2: not shown
light: B1 light
notes: Substitution in one H chain only; position in EU numbering; also called L328F heterodimerized antibody
B5: GpH7-A5/GpH7-B3 variant S239_08L/GpL16-k0 (He Ab) (antibody, human IgG1, kappa)
heavy 1: not shown
heavy 2: not shown
light: B1 light
notes: Substitution in one H chain only; position in EU numbering; also called S239L heterodimerized antibody
B6: GpH7-A5/GpH7-B3 variant S239_07I/GpL16-k0 (He Ab) (antibody, human IgG1, kappa)
heavy 1: not shown
heavy 2: not shown
light: B1 light
notes: Substitution in one H chain only; position in EU numbering; also called S239I heterodimerized antibody
B7: GpH7-A5/GpH7-B3 variant T335_04F/GpL16-k0 (He Ab) (antibody, human IgG1, kappa)
heavy 1: not shown
heavy 2: not shown
light: B1 light
notes: Substitution in one H chain only; position in EU numbering; also called T335F heterodimerized antibody
B8: GpH7-A5/GpH7-B3 variant P271_08L/GpL16-k0 (He Ab) (antibody, human IgG1, kappa)
heavy 1: not shown
heavy 2: not shown
light: B1 light
notes: Substitution in one H chain only; position in EU numbering; also called P271L heterodimerized antibody
B9: GpH7-A5/GpH7-B3 variant L328_14T/GpL16-k0 (He Ab) (antibody, human IgG1, kappa)
heavy 1: not shown
heavy 2: not shown
light: B1 light
notes: Substitution in one H chain only; position in EU numbering; also called L328T heterodimerized antibody
B10: GpH7-A5/GpH7-B3 variant P271_01G/GpL16-k0 (He Ab) (antibody, human IgG1, kappa)
heavy 1: not shown
heavy 2: not shown
light: B1 light
notes: Substitution in one H chain only; position in EU numbering; also called P271G heterodimerized antibody
B11: GpH7-A5/GpH7-B3 variant S267_08L/GpL16-k0 (He Ab) (antibody, human IgG1, kappa)
heavy 1: not shown
heavy 2: not shown
light: B1 light
notes: Substitution in one H chain only; position in EU numbering; also called S267L heterodimerized antibody
B12: GpH7-A5/GpH7-B3 variant S267_10E/GpL16-k0 (He Ab) (antibody, human IgG1, kappa)
heavy 1: not shown
heavy 2: not shown
light: B1 light
notes: Substitution in one H chain only; position in EU numbering; also called S267E heterodimerized antibody
B13: GpH7-A5/GpH7-B3 variant S239_09D/GpL16-k0 (He Ab) (antibody, human IgG1, kappa)
heavy 1: not shown
heavy 2: not shown
light: B1 light
notes: Substitution in one H chain only; position in EU numbering; also called S239D heterodimerized antibody
B14: GpH7-A5/GpH7-B3 variant S337_14T/GpL16-k0 (He Ab) (antibody, human IgG1, kappa)
heavy 1: not shown
heavy 2: not shown
light: B1 light
notes: Substitution in one H chain only; position in EU numbering; also called S337T heterodimerized antibody
B15: GpH7-A5/GpH7-B3 variant S267_03V/GpL16-k0 (He Ab) (antibody, human IgG1, kappa)
heavy 1: not shown
heavy 2: not shown
light: B1 light
notes: Substitution in one H chain only; position in EU numbering; also called S267V heterodimerized antibody
B16: GpH7-A5/GpH7-B3 variant S267_14T/GpL16-k0 (He Ab) (antibody, human IgG1, kappa)
heavy 1: not shown
heavy 2: not shown
light: B1 light
notes: Substitution in one H chain only; position in EU numbering; also called S267T heterodimerized antibody
B17: GpH7-A5/GpH7-B3 variant P238_08L/GpL16-k0 (He Ab) (antibody, human IgG1, kappa)
heavy 1: not shown
heavy 2: not shown
light: B1 light
notes: Substitution in one H chain only; position in EU numbering; also called P238L heterodimerized antibody
B18: GpH7-A5/GpH7-B3 variant S337_09D/GpL16-k0 (He Ab) (antibody, human IgG1, kappa)
heavy 1: not shown
heavy 2: not shown
light: B1 light
notes: Substitution in one H chain only; position in EU numbering; also called S337D heterodimerized antibody
B19: GpH7-A5/GpH7-B3 variant K334_19Q/GpL16-k0 (He Ab) (antibody, human IgG1, kappa)
heavy 1: not shown
heavy 2: not shown
light: B1 light
notes: Substitution in one H chain only; position in EU numbering; also called K334Q heterodimerized antibody
B20: GpH7-A5/GpH7-B3 variant L328_06M/GpL16-k0 (He Ab) (antibody, human IgG1, kappa)
heavy 1: not shown
heavy 2: not shown
light: B1 light
notes: Substitution in one H chain only; position in EU numbering; also called L328M heterodimerized antibody
B21: GpH7-A5/GpH7-B3 variant T335_08L/GpL16-k0 (He Ab) (antibody, human IgG1, kappa)
heavy 1: not shown
heavy 2: not shown
light: B1 light
notes: Substitution in one H chain only; position in EU numbering; also called T335L heterodimerized antibody
B22: GpH7-A5/GpH7-B3 variant L328_19Q/GpL16-k0 (He Ab) (antibody, human IgG1, kappa)
heavy 1: not shown
heavy 2: not shown
light: B1 light
notes: Substitution in one H chain only; position in EU numbering; also called L328Q heterodimerized antibody
B23: GpH7-A5/GpH7-B3 variant S337_10E/GpL16-k0 (He Ab) (antibody, human IgG1, kappa)
heavy 1: not shown
heavy 2: not shown
light: B1 light
notes: Substitution in one H chain only; position in EU numbering; also called S337E heterodimerized antibody

Target: T1, FcγRIIb extracellular domain with …
Experiment: SPR (Biacore), antibody captured on antigen-peptide chip, FcgRIIb as analyte; binding relative to GpH7-A5/GpH7-B3/GpL16-k0 (HeCon Ab) = 100

| He/Con_2b | Binder |
| --- | --- |
| 119 % of control | B1 |
| 144 % of control | B2 |
| 192 % of control | B3 |
| 219 % of control | B4 |
| 140 % of control | B5 |
| 107 % of control | B6 |
| 103 % of control | B7 |
| 103 % of control | B8 |
| 141 % of control | B9 |
| 193 % of control | B10 |
| 109 % of control | B11 |
| 379 % of control | B12 |
| 206 % of control | B13 |
| 105 % of control | B14 |
| 192 % of control | B15 |
| 104 % of control | B16 |
| 204 % of control | B17 |
| 114 % of control | B18 |
| 109 % of control | B19 |
| 142 % of control | B20 |
| 104 % of control | B21 |
| 105 % of control | B22 |
| 107 % of control | B23 |
